Patent US20160274120A1, “METHODS OF DETERMINING WHETHER THE WNT SIGNALING PATHWAY IS UPREGULATED IN A TUMOR” (ICAHN SCHOOL OF MEDICINE AT MOUNT SINAI, priority 2009, published 2016)

B1: DKK1: Dickkopf-1, secreted Wnt antagonist binding co-receptor LRP6; Flag-tagged, expressed from lentiviral vector (protein, UniProt O94907 32-266, looked up)
Dickkopf-related protein 1: TLNSVLNSNAIKNLPPPLGGAAGHPGSAVSAAPGILYPGGNKYQTIDNYQPYPCAEDEECGTDEYCASPTRGGDAGVQICLACRKRRKRCMRHAMCCPGNYCKNGICVSSDQNHFRGEIEETITESFGNDHSTLDGYSRRTTLSSKMYHTKGQEGSVCLRSSDCASGLCCARHFWSKICKPVLKEGQVCTKHRRKGSHGLEIFQRCYCGEGLSCRIQKDHHQASNSSRLHTCQRH
modifications: Flag tag
notes: Flag-tagged, expressed from lentiviral vector
B2: FRP1: secreted Frizzled Related Protein, Wnt antagonist inhibiting Wnt ligand-receptor interaction; HA-tagged, expressed from lentiviral vector (protein, UniProt Q8N474 32-314, looked up)
Secreted frizzled-related …: SEYDYVSFQSDIGPYQSGRFYTKPPQCVDIPADLRLCHNVGYKKMVLPNLLEHETMAEVKQQASSWVPLLNKNCHAGTQVFLCSLFAPVCLDRPIYPCRWLCEAVRDSCEPVMQFFGFYWPEMLKCDKFPEGDVCIAMTPPNATEASKPQGTTVCPPCDNELKSEAIIEHLCASEFALRMKIKEVKKENGDKKIVPKKKKPLKLGPIKKKDLKKLVLYLKNGADCPCHQLDNLSHHFLIMGRKVKSQYLLTAIHKWDKKNKEFKNFMKKMKNHECPTFQSVFK
modifications: HA tag
notes: HA-tagged, expressed from lentiviral vector

How the values were obtained:
[1] = test system: human sarcoma cells; test: Proliferation of sarcoma cells in vitro (1000 cells/60 mm, 10 days, crystal violet); type: cell-based; conditions: A2984, HT1080 and HCT116 cells, lentiviral shRNA
Description: FIGS. 16A-16F. Downregulation of CDC25A, a novel Wnt target gene, inhibits proliferation of human sarcoma cells in vitro. A. CDC25A is a direct target of Wnt signaling in sarcoma cells. Chromatin immunoprecipitation was conducted on DNA extracted from U-2 OS, a Wnt autocrine sarcoma cell line. Monoclonal antibody against β-catenin was used in immunoprecipitation. Axin 2, a known Wnt target gene, was used as a positive control. […] C. Downregulation of Wnt signaling (assayed by TCF4 reporter activity) in sarcoma cells expressing dnTCF4. Cells stably expressing TOP luciferase and a normalizer, renilla luciferase, were used in this assay. D. dnTCF expression induces growth arrest in sarcoma cells. Indicated human sarcoma cells were stably infected with dnTCF or an empty vector control and selected in puromycin for 3 days. Cells were plated at 1000 cells/60 mm
density and cultured for 10 days. […] E Knockdown of CDC25A or c-myc induces growth arrest in sarcoma cells. HCTZ 16, a human colon cancer cell line was used for comparison. Indicated cells were stably infected with either empty vector control or shRNA specific for CDC25A or c-myc and selected in puromycin and plated at 1000 cells/60 mm plate and cultured for 10 days. Cells were fixed and stained with crystal violet. F. Western blotting to show specific downregulation of CDC25A or c-myc after shRNA expression in indicated cells. […]

[2] = test system: NSCLC cells; test: Cell growth analysis assay (crystal violet staining) of NSCLC cells; type: cell-based, human; conditions: stable DKK1 expression
Excerpt: Transduced and marker selected cells were trypsinized, counted and 1-2×10^4 cells plated into 60 mm tissue culture dishes. At 2-3 weeks, cells were washed with PBS, fixed in 10% methanol/acetic acid solution and stained with 1% crystal violet.

[3] = test system: TCF reporter activity; test: TCF mediated luciferase reporter activity (TOP/FOP) in NSCLC cell lines; type: cell-based, human; conditions: around 30% of Wnt activated NSCLC lines (summary)
Description: 24 hours before infection, stable reporter cell lines expressing TOP or FOP TCF luciferase and renilla luciferase were plated in 6 well plates at I×IO^5 cells/well. The following day cells were infected with lentiviruses expressing different Wnt antagonists, selected with 2 μg/ml puromycin for 3 days, lysed and processed for luciferase reporter assay using the dual luciferase reporter Kit (Promega) according to the manufacturer's protocol. Luciferase reporter activity was calculated by dividing the ratio TOP/RL by the FOP/RL ratio. Results were normalized to the results with vector transduced cultures.
(§1) analysis, cells were co-infected with TOP or FOP firefly luciferase mixed with a lentivirus expressing renilla luciferase (RL) used to normalize for infection efficiency (1:20-1:40 ratio). To assess the effects of FRP1 and DKK1 on TCF luciferase reporter activity, stable reporter cell lines were plated in 6 well plates and infected with vector, FRP1 or DKK1 lentiviruses. Cells were selected for 3 days with puromycin, lysed and processed for dual luciferase analysis. To generate stable inducible lines, cells were infected consecutively with tetracycline trans-activator (tTa) expressing lentivirus, selected for two weeks with 5-10 μg/ml blasticidin, followed by a second infection with lentiviruses expressing inducible FRP1, DKK1, DNTCF-4 or DNTCF-4-mOrange or empty vector, and selected for 4-7 days in 2 μg/ml puromycin in the presence of 10 ng/ml doxycycline. For induction of the antagonists, cells were trypsinized, washed with PBS and plated into 10 cm plates in the presence or absence of doxycyclin. Control cells expressing tTa or empty vector were processed in the same way. All infections were performed for 16 hr in the presence of 8 μg/ml polybrene.

[4] = test system: axin2; test: Real time PCR quantification of axin2 mRNA expression in NSCLC cells; type: cell-based, human; conditions: around 30% of Wnt activated NSCLC lines (summary)
Description: Total RNA was isolated from cells using the Trizol Reagent (Invitrogen) according to the manufacturer's protocol. Semi-quantitative RT-PCR screen was performed using One Step RT-PCR Kit (Invitrogen) according to the manufacturer's protocol. PCR products were separated on 1% agarose gel. 5 μg total RNA was reverse transcribed using Superscript II reverse transcriptase (Invitrogen). Quantitative PCR was performed using SybrGreen 2× master mix (Roche) on a MJ Opticon or Stratagene MxPro3005. 50 ng cDNA were amplified as follows: 94° C. for 15 min, 94° C. for 15 s, 60° C. for 30 s, 72° C. for 1 min. Steps 2 through 4 were repeated for 40 cycles. Each reaction was performed in duplicate, and results of 3 independent experiments were used for statistical analysis. Relative mRNA expression levels were quantified using the ΔΔC(t) method (Pfaffl, 2001). Results were normalized to those for TATA Binding Protein (TBP). Primer sequences can be found in Tables 4 and 5.

[5] = test system: autocrine Wnt NSCLC cells; test: Sensitization of NSCLC cells to cisplatin (colony growth, annexin/PI FACS); type: cell-based, human; conditions: H23 (autocrine Wnt) vs A549 cells, lentiviral DKK1, cisplatin
Description: FIGS. 13A and 13E. […] (A and B) Effects of cisplatin on growth of H23 (A) and A549 (B) cells infected with vector (VEC) or DKK1 expressing lentiviruses. 5×10^3 H23 and A549 cells expressing vector or DKK1 were plated in 60 mm plates. Cells were treated for 4 hr with 5 or 20 μM cisplatin or saline as control and colonies were visualized 2 weeks later by crystal violet staining. (C and D) Effects of cisplatin on apoptosis of H23 (C) and A549 (D) cells infected with vector (VEC) or DKK1 expressing lentiviruses and treated for 3 days with increasing concentrations of cisplatin. Adherent and floating cells were collected and processed for FACS analysis using annexin/PI. The percentage of annexin positive cells in vector or DKK1 infected cells is represented in the line graph. Results are the mean±SD of 3 independent experiments. Statistical two-way analysis of variance (ANOVA) tests with Bonferroni multiple testing corrections were performed. *−p<0.05, **−p<0.01, ***−p<0.001. […] Cell lysates were collected every 24 hr and analyzed by immunoblot. […]
For DNA content analysis, cells were trypsinized, combined with floating cells, washed with PBS, stained with propidium iodide (PI), using the CycleTEST Plus DNA reagent kit (Becton Dickinson) following the manufacturer instructions, and subjected to FACS analysis. […] Results were analyzed using Cell Quest 3.2 software (Becton Dickinson).

[6] = test system: uncomplexed β-catenin; test: Uncomplexed β-catenin, GST-E-cadherin pull-down and immunoblot in NSCLC cells expressing Wnt antagonists; type: cell-based, human; conditions: for uncomplexed β-catenin level: H1819 NSCLC cells, stable (constitutive) expression
Description: FIGS. 2A-2E. Effects of FRP1 and DKK1 inhibition on Wnt/β-catenin signaling and growth of human NSCLC cells. (A) Effects of constitutive expression of FRP1 and DKK1 on uncomplexed β-catenin in H1819 NSCLC cell line. FRP1 and DKK1 expression was determined by immunoblot analysis as described in Materials and methods. (B) Analysis of NSCLC lines for uncomplexed β-catenin using regulatable expression of HA-tagged FRP1 (upper panel) and Flag-tagged DKK1 (lower panel). NSCLC cells expressing Tet regulatable FRP1-HA or DKK1-Flag were generated as described in supplemental Materials and methods. Expression of FRP1-HA or DKK1-Flag was induced by removal of dox from the culture medium. Cells expressing tetracycline Trans-activator (tTa) were used as control. Analysis of uncomplexed β-catenin was performed as described in Materials and methods using 1 mg total cell lysates, except for A427 cells, where 0.1 mg cell lysate was used. FRP1 and DKK1 expression was determined by immunoblot analysis as described in Materials and methods. (C) FRP1 and DKK1 mediated inhibition of TCF luciferase reporter activity in NSCLC cell lines. Luciferase reporter activity was calculated by dividing the TOP/RL ratio by the FOP/RL ratio. Results were normalized to the results with vector transduced cultures. The values represent the mean±SD from two independent experiments. (D) Real time PCR quantification of FRP1 and DKK1 effects on axin2 mRNA expression. H23, Al 146 and H1819 cells were infected with vector (VEC), FRP1-HA or DKK1-Flag lentiviruses. qRT-PCR was performed as described in supplemental Materials and methods. Relative mRNA expression levels were quantified using the ΔΔC(t) method (Pfaffl, 2001). (E) Effects of DKK1 on cell growth. A549, H23, H1819 and A427 cells were infected with lentiviruses expressing vector (VEC) or DKK1-Flag and 2×10^4 cells were plated into 60 mm tissue culture dishes. Cultures were visualized using crystal violet staining 2-3 weeks after plating. Expression of flagged tagged DKK1 was assessed by immunoblot analysis as described in Materials and methods.
GST-E-cadherin binding and immunoblot analysis was performed as previously described (Bafico et al, 1998), with the exception that for human tumor samples it was done with freshly frozen or stored tissue under cold, mild-detergent conditions. Specifically, the following protocol to assay for uncomplexed (active) β-catenin in human tumor samples was used:
as §1

[7] = H23 and A1146 tumor lines, inducible system, low expression in the presence of dox
[8] = around 30% of Wnt activated NSCLC lines (summary)

Molecule	proliferation [1]	cell growth / proliferation vs vector control ([2]; A549 (no Wnt activation) and A427 (β-catenin mutant) cells)	cell growth / proliferation vs vector control ([2]; H23 and H1819 tumor cells)	TCF reporter activity [3]	expression of the Wnt target gene axin2 [4]	sensitization to cisplatin treatment [5]	uncomplexed β-catenin levels ([6]; H23 and A1146 cells, full induction (dox removed))	uncomplexed β-catenin levels [6, 7]	uncomplexed β-catenin level [6]	uncomplexed β-catenin levels ([6]; H2347, H358 or A427 cells)	uncomplexed β-catenin levels [6, 8]
CDC25A shRNA: shRNA specific for CDC25A, 5′CCAGGGAATTTCATTCCTC3′ (SEQ ID NO: 62) (CCAGGGAAATTTCATTCCTC; chemistry not fully specified)	inhibited proliferation to varying degrees	–	–	–	–	–	–	–	–	–	–
B1	–	not associated with any detectable growth inhibition	antiproliferative effects	dramatic decrease	dramatic decrease	specifically sensitizes	further reduced	decrease	marked decrease	no effect	dramatic decrease
B2	–	–	–	dramatic decrease	dramatic decrease	–	–	significant reduction	marked decrease	no effect	dramatic decrease
